These results are taken from article PMC8998655, “Effect of Betaine and Arginine on Interaction of αB-Crystallin with Glycogen Phosphorylase b” (International Journal of Molecular Sciences, 2022).

Data set [1] concerns the molecule itself. In words: AUC + other: dynamic light scattering; sedimentation velocity at 48 °C, αB-Cr 0.2 mg/mL, 0.03 M Hepes pH 6.8, ionic strength 0.15 M, with 300 mM betaine; mass by the Svedberg equation with s from AUC and D from DLS; major peak 16.5 S.
Data set [2] concerns the molecule itself. In words: AUC + other: dynamic light scattering; sedimentation velocity at 48 °C, αB-Cr 0.2 mg/mL, 0.03 M Hepes pH 6.8, ionic strength 0.15 M, no additive; mass by the Svedberg equation with s from AUC and D from DLS; major peak 20.4 S.
Data set [3] concerns the molecule itself. Nature of the data set: AUC; sedimentation velocity at 48 °C, Phb 0.4 mg/mL alone (also with 500 mM betaine), 0.03 M Hepes pH 6.8, ionic strength 0.15 M, 48,000 rpm.

B1: αB-crystallin (natural protein, human, UniProt P02511 1-175, looked up)
chain: MDIAIHHPWIRRPFFPFHSPSRLFDQFFGEHLLESDLFPTSTSLSPFYLRPPSFLRAPSWFDTGLSEMRLEKDRFSVNLDVKHFSPEELKVKVLGDVIEVHGKHEERQDEHGFISREFHRKYRIPADVDPLTITSSLSSDGVLTVNGPRKQVSGPERTIPITREEKPAVTAAPKK
notes: αB-crystallin (HspB5), human; Polydisperse oligomer (about 40-mer at 48 °C without additives, about 24-mer with 300 mM betaine); also called HspB5; source: E. coli (pET23 vector), purified (salting out with ammonium sulfate, gel filtration)
Take B1: the “stoichiometry N” value in data set [1] was ~24; in data set [2], 40.

B2: glycogen phosphorylase b (enzyme, rabbit, UniProt P00489 1-843, looked up)
chain: MSRPLSDQEKRKQISVRGLAGVENVTELKKNFNRHLHFTLVKDRNVATPRDYYFALAHTVRDHLVGRWIRTQQHYYEKDPKRIYYLSLEFYMGRTLQNTMVNLALENACDEATYQLGLDMEELEEIEEDAGLGNGGLGRLAACFLDSMATLGLAAYGYGIRYEFGIFNQKICGGWQMEEADDWLRYGNPWEKARPEFTLPVHFYGRVEHTSQGAKWVDTQVVLAMPYDTPVPGYRNNVVNTMRLWSAKAPNDFNLKDFNVGGYIQAVLDRNLAENISRVLYPNDNFFEGKELRLKQEYFVVAATLQDIIRRFKSSKFGCRDPVRTNFDAFPDKVAIQLNDTHPSLAIPELMRVLVDLERLDWDKAWEVTVKTCAYTNHTVLPEALERWPVHLLETLLPRHLQIIYEINQRFLNRVAAAFPGDVDRLRRMSLVEEGAVKRINMAHLCIAGSHAVNGVARIHSEILKKTIFKDFYELEPHKFQNKTNGITPRRWLVLCNPGLAEIIAERIGEEYISDLDQLRKLLSYVDDEAFIRDVAKVKQENKLKFAAYLEREYKVHINPNSLFDVQVKRIHEYKRQLLNCLHVITLYNRIKKEPNKFVVPRTVMIGGKAAPGYHMAKMIIKLITAIGDVVNHDPVVGDRLRVIFLENYRVSLAEKVIPAADLSEQISTAGTEASGTGNMKFMLNGALTIGTMDGANVEMAEEAGEENFFIFGMRVEDVDRLDQRGYNAQEYYDRIPELRQIIEQLSSGFFSPKQPDLFKDIVNMLMHHDRFKVFADYEEYVKCQERVSALYKNPREWTRMVIRNIATSGKFSSDRTIAQYAREIWGVEPSRQRLPAPDEKIP
notes: glycogen phosphorylase b (muscle form), rabbit skeletal muscle; In all experiments the protein was heated at 48 °C, so it was partly unfolded (unfolded monomer and partly unfolded dimer); also called Phb; source: purified from rabbit skeletal muscle
Turning to B2, in data set [3], the “stoichiometry N” value turned out to be 2.

One may read the stoichiometry N as a count of units in the complex or per binding partner.
